Literature values as cited in article PMC8707981.
Like-named read-outs stand apart in the source and are kept apart here.

Tests used:
[1] = biological target: Spike protein RBD (SARS-CoV-2) (UniProt P0DTC2)
[2] = biological target: Spike protein RBD (SARS-CoV-2) (UniProt P0DTC2); remark: listed apart in the source

| Substance | Kd [1] [pM] | Kd [2] [pM] |
| --- | --- | --- |
| Casirivimab | 45.8 | – |
| Imdevimab | – | 46.7 |
